Test results from patent US20260207718.

Molecular target: cation-independent mannose-6-phosphate receptor (CIMPR) on fibroblast cells (UniProt P11717)
Sequence (P11717 41-2491): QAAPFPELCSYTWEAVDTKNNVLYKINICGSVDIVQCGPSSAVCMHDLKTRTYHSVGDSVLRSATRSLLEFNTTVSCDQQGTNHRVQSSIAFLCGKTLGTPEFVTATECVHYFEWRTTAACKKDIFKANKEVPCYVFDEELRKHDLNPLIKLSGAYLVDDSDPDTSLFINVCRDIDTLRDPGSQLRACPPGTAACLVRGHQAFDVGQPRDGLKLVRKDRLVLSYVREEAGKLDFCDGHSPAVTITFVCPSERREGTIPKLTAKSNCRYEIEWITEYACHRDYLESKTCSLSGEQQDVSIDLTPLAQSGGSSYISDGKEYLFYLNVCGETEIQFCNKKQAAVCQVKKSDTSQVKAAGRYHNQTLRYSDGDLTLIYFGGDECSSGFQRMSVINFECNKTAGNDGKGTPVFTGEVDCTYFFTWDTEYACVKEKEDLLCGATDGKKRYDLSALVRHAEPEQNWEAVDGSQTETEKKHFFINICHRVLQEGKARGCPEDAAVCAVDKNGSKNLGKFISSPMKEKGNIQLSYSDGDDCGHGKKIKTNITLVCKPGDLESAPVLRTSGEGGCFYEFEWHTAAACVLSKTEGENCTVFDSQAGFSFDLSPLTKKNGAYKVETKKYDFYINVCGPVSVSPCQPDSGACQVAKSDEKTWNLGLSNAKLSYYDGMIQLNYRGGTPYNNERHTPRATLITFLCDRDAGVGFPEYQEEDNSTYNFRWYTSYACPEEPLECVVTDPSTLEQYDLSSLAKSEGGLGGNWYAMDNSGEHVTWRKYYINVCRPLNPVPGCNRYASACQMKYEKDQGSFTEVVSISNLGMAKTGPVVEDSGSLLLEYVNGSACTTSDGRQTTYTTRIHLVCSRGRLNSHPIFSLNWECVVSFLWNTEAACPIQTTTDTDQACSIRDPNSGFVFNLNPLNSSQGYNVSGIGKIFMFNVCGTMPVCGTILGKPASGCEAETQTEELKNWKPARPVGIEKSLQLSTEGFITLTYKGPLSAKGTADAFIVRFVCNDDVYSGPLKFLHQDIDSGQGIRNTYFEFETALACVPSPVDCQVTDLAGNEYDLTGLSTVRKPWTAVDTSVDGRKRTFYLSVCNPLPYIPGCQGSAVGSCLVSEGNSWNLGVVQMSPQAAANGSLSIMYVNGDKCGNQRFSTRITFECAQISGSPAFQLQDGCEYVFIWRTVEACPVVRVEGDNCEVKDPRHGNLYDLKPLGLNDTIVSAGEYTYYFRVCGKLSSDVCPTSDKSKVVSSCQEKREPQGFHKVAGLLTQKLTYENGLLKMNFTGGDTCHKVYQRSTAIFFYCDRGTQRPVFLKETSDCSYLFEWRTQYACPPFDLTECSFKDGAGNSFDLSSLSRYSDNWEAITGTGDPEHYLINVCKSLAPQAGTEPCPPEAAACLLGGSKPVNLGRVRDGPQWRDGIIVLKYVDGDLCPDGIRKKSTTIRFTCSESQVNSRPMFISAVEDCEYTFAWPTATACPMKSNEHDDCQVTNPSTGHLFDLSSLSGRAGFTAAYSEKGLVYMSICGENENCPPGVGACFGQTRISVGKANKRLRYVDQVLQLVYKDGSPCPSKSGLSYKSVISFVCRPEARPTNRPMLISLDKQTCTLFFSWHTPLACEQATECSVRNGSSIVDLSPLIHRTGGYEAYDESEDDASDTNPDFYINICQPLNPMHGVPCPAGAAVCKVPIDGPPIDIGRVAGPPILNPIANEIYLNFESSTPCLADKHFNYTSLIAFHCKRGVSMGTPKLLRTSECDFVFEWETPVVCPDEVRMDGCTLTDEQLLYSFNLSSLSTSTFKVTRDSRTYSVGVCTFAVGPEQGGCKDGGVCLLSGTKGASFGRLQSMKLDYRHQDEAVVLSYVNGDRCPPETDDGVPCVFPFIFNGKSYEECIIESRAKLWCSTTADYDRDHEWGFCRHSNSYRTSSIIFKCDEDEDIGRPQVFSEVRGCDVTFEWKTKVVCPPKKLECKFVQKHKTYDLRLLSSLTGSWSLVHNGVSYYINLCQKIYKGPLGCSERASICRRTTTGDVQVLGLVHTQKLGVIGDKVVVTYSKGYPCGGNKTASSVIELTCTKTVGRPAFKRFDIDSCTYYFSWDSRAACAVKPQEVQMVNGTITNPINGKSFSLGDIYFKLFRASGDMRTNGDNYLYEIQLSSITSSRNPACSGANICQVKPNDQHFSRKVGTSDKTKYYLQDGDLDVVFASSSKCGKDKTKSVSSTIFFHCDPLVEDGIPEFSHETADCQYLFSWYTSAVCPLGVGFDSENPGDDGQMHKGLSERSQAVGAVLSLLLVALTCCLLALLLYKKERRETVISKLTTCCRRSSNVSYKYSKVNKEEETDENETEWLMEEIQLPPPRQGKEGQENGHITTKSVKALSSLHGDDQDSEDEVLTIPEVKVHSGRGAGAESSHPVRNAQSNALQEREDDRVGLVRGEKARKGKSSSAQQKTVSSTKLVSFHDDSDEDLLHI

Substance	stated: internalized (GAA activity inside CRL 2076 normal fibroblasts)	stated: internalized (GAA activity inside PM25 Pompe fibroblasts)
ATB200 recombinant human acid α-glucosidase (rhGAA)	The curve labelled ATB200 rises steeply from 0 to about 33 nmol/mg protein/hr at about 25 nM. It then stays on a plateau of about 34 up to about 240 nM. The +M6P point (triangle) at about 240 nM lies at about 5, near the zero line.	The curve labelled ATB200 rises steeply from 0 to about 30 at about 10 nM and about 36 at about 27 nM. The fitted plateau is about 41 nmol/mg protein/hr from about 80 nM. The last point, at about 240 nM, is about 45. The +M6P points at about 245 nM lie at about 1-4, near the zero line.
LUMIZYME® (alglucosidase alfa, conventional rhGAA product)	The curve labelled Alglucosidase Alfa rises gradually from 0: about 8 at about 10 nM, about 16 at about 27 nM and about 23 at about 80 nM. It reaches about 35 nmol/mg protein/hr at about 240 nM, where it meets the ATB200 curve. The +M6P point (square) at about 240 nM lies at about 1, on the zero lin	The curve labelled Alglucosidase Alfa rises gradually from 0: about 7 at about 10 nM, about 13 at about 27 nM and about 26 at about 80 nM. It reaches about 37 nmol/mg protein/hr at about 240 nM and stays below the ATB200 curve throughout. The +M6P points at about 245 nM lie at about 1-4, near the ze
